The numbers were not newly measured in paper PMC13242717, which cites them from elsewhere.

What is called Kd is a measure of binding affinity in units of concentration.

In the data set the target is spike protein (SARS-CoV-2) (UniProt P0DTC2).

Consider spike protein (from UniProt P0DTC2), for which the Kd was 300 nM.
